This series is described as follows: self-splicing fitness, log relative to wild type (ln ratio); higher = more splicing; Tetrahymena group I intron in knt gene, E. coli kanamycin selection, DiMSum; sequences stand for … in CUCUCU…GGAGGGAAAAGUUAUCAGGCAUGCACCUGGUAGCUAGUCUUUAAACCAAUAGAUUGCAUCGGUUUAAAAGGCAAGACCGUCAAAUUGCGGGAAAGGGGUCAACAGCCGUUCAGUACCAAGUCUCAGGGGAAACUUUGAGAUGGCCUUGCAAAGGGUAUGGUAAUAAGCUGACGGACAUGGUCCUAACCACGCAGCCAAGUCCUAAGUCAACAGAUCUUCUGUUGAUAUGGAUGCAGUUCACAGACUAAAUGUCGGUCGGGGAAGAUGUAUUCUUCUCAUAAGAUAUAGUCGGACCUCUCCUUAAUGGGAGCUAGCGGAUGAAGUGAUGCAACACUGGAGCCGCUGGGAACUAAUUUGUAUGCGAAAGUAUAUUGAUUAGUUUUGGAGUACUCGUGGUCG
Summed up:
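A randomised library covering all eight P1ex-region intron nucleotides was built with the intron in the knt kanamycin-resistance gene on pET-22b(+) and held in E. coli BL21(DE3). Cells were grown overnight at 37°C or 30°C on LB agar, with or without 25 μg/mL kanamycin, plus 100 μg/mL carbenicillin, 50 μM IPTG and 0.2% rhamnose, and pooled colonies were amplicon-sequenced on an Illumina HiSeq 2500. DiMSum fitness is the error-weighted combination of wild-type-normalised replicate fold changes, kanamycin versus none.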

Here are results for 60 sequences from the supplement of paper PMC7877785.

± gives the uncertainty stated by the source.

As to AUGUAGCAAUAUUACGAGAG, the “self-splicing fitness (ln)” value was -4.62 ± 0.39 (30 °C) and -2.71 ± 0.22 (37 °C).

For GAAUAGCAAUAUUACGUUUG, the “self-splicing fitness (ln)” value is, setting by setting: (30 °C) -1.61 ± 0.15; (37 °C) -1.05 ± 0.15.

Take UUGAAGCAAUAUUACGUCAG: the “self-splicing fitness (ln)” value amounted to 0.252 ± 0.076 (30 °C) and 0.934 ± 0.11 (37 °C).

Consider CCAUAGCAAUAUUACGACUG, for which the “self-splicing fitness (ln)” value by setting is: (30 °C) -0.667 ± 0.071; (37 °C) -0.0816 ± 0.087.

Take AACAAGCAAUAUUACGCAGG: the “self-splicing fitness (ln)” value runs as follows: (30 °C) -2.67 ± 0.11; (37 °C) -1.49 ± 0.098.

Take UAUGAGCAAUAUUACGGCGA: the “self-splicing fitness (ln)” value (30 °C) was -0.815 ± 0.17 and the “self-splicing fitness (ln)” value (37 °C) is -0.45 ± 0.16.

As to AAUCAGCAAUAUUACGACAU, the “self-splicing fitness (ln)” value was 0.114 ± 0.011 (30 °C) and 0.208 ± 0.032 (37 °C).

For GGCCAGCAAUAUUACGGAAC, the “self-splicing fitness (ln)” value is -0.685 ± 0.1 (30 °C) and -0.981 ± 0.14 (37 °C).

As to CUGAAGCAAUAUUACGUUGC, the “self-splicing fitness (ln)” value is -4.09 ± 0.26 (30 °C) and -0.264 ± 0.2 (37 °C).

For the sequence GCGUAGCAAUAUUACGAGAU, the “self-splicing fitness (ln)” value reads like this: (30 °C) -2.22 ± 0.12; (37 °C) -2.25 ± 0.17.

With AUUUAGCAAUAUUACGAUUA, the “self-splicing fitness (ln)” value was -1.4 ± 0.2 (30 °C) and -0.561 ± 0.16 (37 °C).

On to AGGAAGCAAUAUUACGACCA, for which the “self-splicing fitness (ln)” value (30 °C) is -0.504 ± 0.06 and the “self-splicing fitness (ln)” value (37 °C) was -0.317 ± 0.096.

For the sequence CGUGAGCAAUAUUACGUUCC, the “self-splicing fitness (ln)” value (30 °C) is -3.37 ± 0.31.

Turning to UAGCAGCAAUAUUACGCAGU, the “self-splicing fitness (ln)” value runs as follows: (30 °C) -3.58 ± 0.47; (37 °C) -2.18 ± 0.21.

With AAAAAGCAAUAUUACGCUUG, the “self-splicing fitness (ln)” value reads like this: (30 °C) -1.69 ± 0.087; (37 °C) -0.744 ± 0.1.

Regarding CUAAAGCAAUAUUACGGAGU, the “self-splicing fitness (ln)” value was -4.03 ± 0.15 (30 °C) and -3.19 ± 0.23 (37 °C).

In the case of ACUGAGCAAUAUUACGCACG, the “self-splicing fitness (ln)” value reads like this: (30 °C) -2.17 ± 0.15; (37 °C) -1.11 ± 0.17.

On to AACGAGCAAUAUUACGCGGU, for which the “self-splicing fitness (ln)” value was -3.29 ± 0.26 (30 °C) and -1.62 ± 0.15 (37 °C).

As for AGACAGCAAUAUUACGGAAU, the “self-splicing fitness (ln)” value (30 °C) was -3.47 ± 0.14 and the “self-splicing fitness (ln)” value (37 °C) is -2.29 ± 0.17.

Regarding GUGCAGCAAUAUUACGUAUU, the “self-splicing fitness (ln)” value reads like this: (30 °C) -1.7 ± 0.1; (37 °C) -1.78 ± 0.12.

As to GUUGAGCAAUAUUACGUACG, the “self-splicing fitness (ln)” value (30 °C) is -2.57 ± 0.39 and the “self-splicing fitness (ln)” value (37 °C) was -2.31 ± 0.45.

GAAAAGCAAUAUUACGAUCA: the “self-splicing fitness (ln)” value was -0.39 ± 0.067 (30 °C) and -0.234 ± 0.072 (37 °C).

UAUGAGCAAUAUUACGACCA: the “self-splicing fitness (ln)” value reads like this: (30 °C) -2.25 ± 0.16; (37 °C) -2.07 ± 0.18.

On to GAUGAGCAAUAUUACGGACC, for which the “self-splicing fitness (ln)” value reads like this: (30 °C) -0.753 ± 0.19; (37 °C) -0.541 ± 0.22.

Take GUAUAGCAAUAUUACGAUUA: the “self-splicing fitness (ln)” value reads like this: (30 °C) -1.14 ± 0.16; (37 °C) -1.4 ± 0.15.

Regarding GUCAAGCAAUAUUACGACUG, the “self-splicing fitness (ln)” value is, setting by setting: (30 °C) -4.59 ± 0.27; (37 °C) -4.75 ± 0.45.

As for UGACAGCAAUAUUACGCUAC, the “self-splicing fitness (ln)” value by setting is: (30 °C) -2.24 ± 0.43; (37 °C) -1.56 ± 0.26.

Regarding CAGUAGCAAUAUUACGUGGU, the “self-splicing fitness (ln)” value by setting is: (30 °C) -2.56 ± 0.13; (37 °C) -2.54 ± 0.17.

For AUACAGCAAUAUUACGGGCC, the “self-splicing fitness (ln)” value runs as follows: (30 °C) -2.7 ± 0.17; (37 °C) -2.82 ± 0.44.

With GUUAAGCAAUAUUACGGUCU, the “self-splicing fitness (ln)” value was -2.3 ± 0.14 (30 °C) and -0.0437 ± 0.12 (37 °C).

In the case of CGUGAGCAAUAUUACGUGCG, the “self-splicing fitness (ln)” value (30 °C) is -3.21 ± 0.24 and the “self-splicing fitness (ln)” value (37 °C) was -2.6 ± 0.32.

CUGGAGCAAUAUUACGGGUA: the “self-splicing fitness (ln)” value is -2.59 ± 0.23 (30 °C) and -1.77 ± 0.26 (37 °C).

In the case of CGAUAGCAAUAUUACGAGCC, the “self-splicing fitness (ln)” value runs as follows: (30 °C) -2.23 ± 0.28; (37 °C) -2.61 ± 0.44.

Regarding CUCCAGCAAUAUUACGUAUC, the “self-splicing fitness (ln)” value was -3.01 ± 0.16 (30 °C) and -2.73 ± 0.23 (37 °C).

Consider UUACAGCAAUAUUACGGUAA, for which the “self-splicing fitness (ln)” value runs as follows: (30 °C) -2.33 ± 0.2; (37 °C) -1.68 ± 0.17.

On to UGCCAGCAAUAUUACGUCUG, for which the “self-splicing fitness (ln)” value reads like this: (30 °C) -2.57 ± 0.15; (37 °C) -1.48 ± 0.16.

As to ACUAAGCAAUAUUACGGGCG, the “self-splicing fitness (ln)” value is, setting by setting: (30 °C) -0.856 ± 0.091; (37 °C) -0.529 ± 0.1.

Turning to UUAGAGCAAUAUUACGGUAA, the “self-splicing fitness (ln)” value runs as follows: (30 °C) -1.34 ± 0.086; (37 °C) -0.0767 ± 0.11.

AAUGAGCAAUAUUACGUCCA: the “self-splicing fitness (ln)” value reads like this: (30 °C) -2.41 ± 0.19; (37 °C) -2.27 ± 0.3.

For the sequence CGAUAGCAAUAUUACGGAGG, the “self-splicing fitness (ln)” value by setting is: (30 °C) -1.28 ± 0.14; (37 °C) -1.17 ± 0.15.

Turning to GACUAGCAAUAUUACGGCGU, the “self-splicing fitness (ln)” value was -0.502 ± 0.11 (30 °C) and -0.198 ± 0.1 (37 °C).

Regarding CGGCAGCAAUAUUACGGCAU, the “self-splicing fitness (ln)” value is -0.976 ± 0.088 (30 °C) and -0.0577 ± 0.1 (37 °C).

On to AUAGAGCAAUAUUACGCGCG, for which the “self-splicing fitness (ln)” value was -1.47 ± 0.2 (30 °C) and -0.725 ± 0.23 (37 °C).

Turning to UAAUAGCAAUAUUACGGCCA, the “self-splicing fitness (ln)” value runs as follows: (30 °C) -0.34 ± 0.17; (37 °C) 0.175 ± 0.18.

For GAAUAGCAAUAUUACGAAGA, the “self-splicing fitness (ln)” value (30 °C) is -2.78 ± 0.33 and the “self-splicing fitness (ln)” value (37 °C) is -1.45 ± 0.25.

For ACCGAGCAAUAUUACGGGCC, the “self-splicing fitness (ln)” value (30 °C) was -3.39 ± 0.17 and the “self-splicing fitness (ln)” value (37 °C) is -2.09 ± 0.15.

For the sequence UAUCAGCAAUAUUACGCCAA, the “self-splicing fitness (ln)” value by setting is: (30 °C) -1.34 ± 0.19; (37 °C) -0.351 ± 0.2.

On to CGUAAGCAAUAUUACGCUCC, for which the “self-splicing fitness (ln)” value is, setting by setting: (30 °C) -2.95 ± 0.41; (37 °C) -1.74 ± 0.48.

As to UAGUAGCAAUAUUACGGACA, the “self-splicing fitness (ln)” value by setting is: (30 °C) -1.04 ± 0.17; (37 °C) -0.115 ± 0.19.

Take ACGGAGCAAUAUUACGCUAU: the “self-splicing fitness (ln)” value was -3.81 ± 0.23 (30 °C) and -2.1 ± 0.19 (37 °C).

As to GGUCAGCAAUAUUACGAGGG, under “37 °C”, the “self-splicing fitness (ln)” value is -2.35 ± 0.25.

For the sequence CACGAGCAAUAUUACGUCAA, the “self-splicing fitness (ln)” value is -2.34 ± 0.17 (30 °C) and -2.13 ± 0.23 (37 °C).

Regarding GUUGAGCAAUAUUACGGUGC, the “self-splicing fitness (ln)” value is, setting by setting: (30 °C) -2.79 ± 0.3; (37 °C) -2.39 ± 0.44.

Regarding UCCUAGCAAUAUUACGUAGG, the “self-splicing fitness (ln)” value was -3.58 ± 0.19 (30 °C) and -2.21 ± 0.26 (37 °C).

On to UAGAAGCAAUAUUACGGAAG, for which the “self-splicing fitness (ln)” value by setting is: (30 °C) -2.16 ± 0.22; (37 °C) -0.543 ± 0.23.

Take GAAUAGCAAUAUUACGAUGC: the “self-splicing fitness (ln)” value (30 °C) is -1.02 ± 0.095 and the “self-splicing fitness (ln)” value (37 °C) is -0.245 ± 0.12.

Turning to UGGCAGCAAUAUUACGAGGA, the “self-splicing fitness (ln)” value is, setting by setting: (30 °C) -2.34 ± 0.34; (37 °C) -1.75 ± 0.26.

For the sequence GAGAAGCAAUAUUACGCUGU, the “self-splicing fitness (ln)” value (30 °C) is -3.35 ± 0.3 and the “self-splicing fitness (ln)” value (37 °C) was -1.45 ± 0.29.

For the sequence UCAAAGCAAUAUUACGGAGA, the “self-splicing fitness (ln)” value is -3.38 ± 0.28 (30 °C) and -1.61 ± 0.17 (37 °C).

As for GCACAGCAAUAUUACGUUGU, the “self-splicing fitness (ln)” value was -3.71 ± 0.12 (30 °C) and -2.74 ± 0.12 (37 °C).
